Data from the nanobody polyreactivity screen of Harvey et al. (2022).

Assay: yeast display, Sf9 membrane polyspecificity reagent, FACS + sequencing; frameworks hold sequencing errors
How it was run: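 Polyreactivity labels are assigned by the sorting gate from which each nanobody was recovered. The gates were low and high (top ~1%), set on anti-HA fluorescence for expression and streptavidin fluorescence for reagent binding. Before sorting, galactose-induced (36–48 hours) yeast display cells were stained for 1 hour at 4 °C with 10% biotinylated, detergent-solubilized Sf9 membrane reagent.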

Sequence | polyreactivity (PSR sort gate)
QVQLVESGGGLVQAGGSLRLSCAASGSIFPAIALGWYRQAPGKERELVAGISERGSSTYYADSVKGRFTISRDNAKNTVYLQMNSLKPEDTAVYYCAADDVGRYWSSTHNWARGDYWGQGTQVTVSS | low polyreactivity
QVQLVESGGGLVQAGGSLRLSCAASGSIFPANVMGWYRQAPGKERELVAVISSSGGRTFYADSVKGRFTISRDNAKNTVYLQMNSLKPEDTAVYYCAATIYDYNRGRKYYYWGQGNQVTVSS | high polyreactivity
QVQLVESGGGLVQAGGSLRLSCAASGSIFPAYAMGWYIQDHGKERELLAAITRGGRTNYADSVKGRFTISRDNAKNTVYLQMNSLKPEDTAVYYCAARGYYAYRFDYWGQGTQVTVSS | high polyreactivity
QVQLVESGGGLVQAGGSLRLSCAASGSIFPAYAMGWYRQAPGKERELVAAITGSGGSTYYADSVKGRFTISRDNAKNTVYLQMNSLKPEDTAVYYCAATIRQYRRYDYWGQGTQVTVSS | low polyreactivity
QVQLVESGGGLVQAGGSLRLSCAASGSIFPAYTMGRYRQAPGKEREMVAAIPYSGARSTYYADSVKGRFTISRDNAKNTVYLQMYSLKPEDTAVYYCNARSRARYFYDMDYWGQGTLVTVSS | low polyreactivity
QVQLVESGGGLVQAGGSLRLSCAASGSIFPDNAMGWYRQAPGKERELVATIRSTGGTNYADSVKGRFTISRDNEKNTVYLQMNSLKPEDTAVYYCATDLWSTTGSEYDYWGQGTQVTVSS | low polyreactivity
QVQLVESGGGLVQAGGSLRLSCAASGSIFPDNVMGWYRQAPGKEREFVAAISWTDGSTRYADSVKGRFTISRDNAKNTVYLQMNSLKPEDTAVYYCNVGTRASYQEGDYWGQGTQVTVSS | low polyreactivity
QVQLVESGGGLVQAGGSLRLSCAASGSIFPFYAMGWYIQAPGKERELVAAISDRGGSTYYADSVKGRFTISRDNAKNTVYLQMNSLKPEDTAVYYCAADKYSQWSSHTRVRYDYWGQGTQVTVSS | low polyreactivity
QVQLVESGGGLVQAGGSLRLSCAASGSIFPFYAMGWYRQAPGKERELVAAISDRGGSTYYADSVKGRFTISRDNAKNTVYLQMNSLKPEDTAVYYGAKGGEVSQGYTDEYDYWGQGTQVTVSS | low polyreactivity
QVQLVESGGGLVQAGGSLRLSCAASGSIFPFYAMGWYRQAPGKERELVAGISGSAGRTYYADSVKGRFTISRDNAKNTVYLQMNSLKPEDTAVYYCAAVYYSSLYDYWGQGTQVTVSS | high polyreactivity
QVQLVESGGGLVQAGGSLRLSCAASGSIFPGNAMGWYRQAPGKERELVAAISSSGGRTYYADSVKGRFTISRDNAKNTVYLQMNSLKPEDTAVYYCNRLQVYSYYPYYPWYNYWGQGTQVTVSS | high polyreactivity
QVQLVESGGGLVQAGGSLRLSCAASGSIFPGNGMGWYRQAPGKERELVAAITWSVATTYYADSVKGRFTISRDNAKNTVYLQMNSLKPEDTAVYYCAADDAYPYDWGQGTQVTVSS | low polyreactivity
QVQLVESGGGLVQAGGSLRLSCAASGSIFPGYAMGWYRQAPGKERELVATISTRGSTYYADSVKGRFTISRDNAKNTVYLQMNSLKPEDTAVYYCNTDFPTAQYDYWGQGTQVTVSS | low polyreactivity
QVQLVESGGGLVQAGGSLRLSCAASGSIFPGYAMGWYRQAPGKERELVATITWSGGSTYYADSVKGRFTISRDNAKNTVYLQMNSLKPVDTAVYYCNADSNWYYQWNYYGLYDYWGQGTQVTVSS | low polyreactivity
QVQLVESGGGLVQAGGSLRLSCAASGSIFPHNAMGWYRQAPGKERALVASITSRGGITYYADSVKGRFTISRDNAKNTVYLQMNSLKPEDTAVYYCNGVLYHYSPTDSWITYDYWGQGTQVTVSS | low polyreactivity
QVQLVESGGGLVQAGGSLRLSCAASGSIFPHNAMGWYRQAPGTERELVASITSRGGITYYADSVKGRFTISRDNAKNTVYLQMNSLKPEDTAVYYCAADLYIYPYDYWGQGTQVTVSS | low polyreactivity

Sequence | polyreactivity (PSR sort gate)
QVQLVESGGGLVQAGGSLRLSCAASGSIFPINARGWYRQAPGKERELVAAISRRTGSTYYPDSVKGRFTISRDNAKNTVYVQMNSLKPEDTAVYYCAASYGTTRQRWLDYWGQGTQVTVSS | high polyreactivity
QVQLVESGGGLVQAGGSLRLSCAASGSIFPIYAMGWYRQAPGKERELVAALNRSGGSTYYADSVKGRFTISRDNAKNTVYLQMNSLKPEDTAVYYCNADYGYHNQLFWGYYGWSSDHWGQGTQVTVSS | low polyreactivity
QVQLVESGGGLVQAGGSLRLSCAASGSIFPIYAMGWYRQAPRKERELVAAISGSGARTYYADSVKGRFTISRDNAKNTVYLQMNSLKPEDTAVYYCNAKYGYDSEARIVKPVRYDYWGQGTQVTVSS | high polyreactivity
QVQLVESGGGLVQAGGSLRLSCAASGSIFPLYAMGWYRQAPGKERELVAAISWSGGSTYYADSVKGRFTISRDNAKNTVYLQMNSLKPEDTAVYYCATLYISTSGYIYEGDYWGQGTQVTVSS | high polyreactivity
QVQLVESGGGLVQAGGSLRLSCAASGSIFPPNAMGWYRQAPGKERELVAAITWSGGSTYYADSVKGRFTISRDNAKNTVYLQRNSLKPEDTAVYYCAKEGARSYNVRAYYYRNYYYWGQGTQVTVSS | high polyreactivity
QVQLVESGGGLVQAGGSLRLSCAASGSIFPPYAMGWYRHAPGKERELVATITIRGGSTYYADSVKGRFTISRDNAKNTVYLQMNSLKPEDTAVYYCAADYSKYYRRYYYWGQGTQVTVSS | high polyreactivity
QVQLVESGGGLVQAGGSLRLSCAASGSIFPPYVMGWYRQAPGKERELVASITTSGGSTYYADSVKGRFTISRDNAKNPVYLQMNSLKPEDTAVYYCAARWYYGGKSAGPGGGYWGQGTQVTVSS | low polyreactivity
QVQLVESGGGLVQAGGSLRLSCAASGSIFPQNGMGWYRQAPGKERELVAAISSNGDNTYADSVKGRFTISRDNAKNTVYLQMNSLKPEDTAVYYCAAERRRTAGGVYHPWEDYWGQGTQVTVSS | low polyreactivity
QVQLVESGGGLVQAGGSLRLSCAASGSIFPQYAMGWYRQAPGKERELVAVISWSGGRTYYADSVKGRFTISRDNAKNTVYLQMNSLKPEDTAVYYCAAKYWYQRYAQSSYTRYYWGQGTQVTVSS | high polyreactivity
QVQLVESGGGLVQAGGSLRLSCAASGSIFPRNAMGWYRQAPGKERELVAAIRKSGGSTYYADSVKGRFTISRDNAKNTVYLQMNSLKPEDTAVYYCAKPYSVCCWQSPIYNYWGQGTQVTVSS | low polyreactivity
QVQLVESGGGLVQAGGSLRLSCAASGSIFPRNTMGWYRQAPGKEREFVAAITTTGSRTYYADSVKGRFTISRDNAKNTVYLQMNSLKPEDTAVYYCAATRRWYPTKLYGYWGQGTQVTVSS | high polyreactivity
QVQLVESGGGLVQAGGSLRLSCAASGSIFPSNAMGWYRQAPGKERELVAAINRDGITNYADSVKGRFTISRDNAKNTVYLQMNSLKPEDTAVYYCAAEFAWQWWEYGYWGQGTQVTVSS | low polyreactivity
QVQLVESGGGLVQAGGSLRLSCAASGSIFPSYAMGWYRQAPGKERELVAAISRSAGSTYYADSVKGRFTISRDNAKNTVYLQMNSLKPEVTAVYYCAADVYSSRYRYDYWGQGTQVTVSS | low polyreactivity
QVQLVESGGGLVQAGGSLRLSCAASGSIFPSYAMGWYRQAPGKERELVATISGSGTRTYYADSVKGRFTISRDNAKNTFYLQMNSLKPEDTAVYYCARLPPGDMDYWGQGTQVTVSS | low polyreactivity
QVQLVESGGGLVQAGGSLRLSCAASGSIFPSYDMGWYRQAPGKERELVAAIRSGGNTTYADSVKGRFTISRDNAKNTVYLQMNSLKPEDTAVYYCAKGYYYYSTVQFYYWGQGTQVTVSS | low polyreactivity
